{"source": "IntAct's records for PubMed 22398447", "parents": {"B1": {"name": "Origin recognition complex subunit 1 (Homo sapiens), Q13415 (parent)", "chain": "MAHYPTRLKTRKTYSWVGRPLLDRKLHYQTYREMCVKTEGCSTEIHIQIGQFVLIEGDDDENPYVAKLLELFEDDSDPPPKKRARVQWFVRFCEVPACKRHLLGRKPGAQEIFWYDYPACDSNINAETIIGLVRVIPLAPKDVVPTNLKNEKTLFVKLSWNEKKFRPLSSELFAELNKPQESAAKCQKPVRAKSKSAESPSWTPAEHVAKRIESRHSASKSRQTPTHPLTPRARKRLELGNLGNPQMSQQTSCASLDSPGRIKRKVAFSEITSPSKRSQPDKLQTLSPALKAPEKTRETGLSYTEDDKKASPEHRIILRTRIAASKTIDIREERTLTPISGGQRSSVVPSVILKPENIKKRDAKEAKAQNEATSTPHRIRRKSSVLTMNRIRQQLRFLGNSKSDQEEKEILPAAEISDSSSDEEEASTPPLPRRAPRTVSRNLRSSLKSSLHTLTKVPKKSLKPRTPRCAAPQIRSRSLAAQEPASVLEEARLRLHVSAVPESLPCREQEFQDIYNFVESKLLDHTGGCMYISGVPGTGKTATVHEVIRCLQQAAQANDVPPFQYIEVNGMKLTEPHQVYVQILQKLTGQKATANHAAELLAKQFCTRGSPQETTVLLVDELDLLWTHKQDIMYNLFDWPTHKEARLVVLAIANTMDLPERIMMNRVSSRLGLTRMCFQPYTYSQLQQILRSRLKHLKAFEDDAIQLVARKVAALSGDARRCLDICRRATEICEFSQQKPDSPGLVTIAHSMEAVDEMFSSSYITAIKNSSVLEQSFLRAILAEFRRSGLEEATFQQIYSQHVALCRMEGLPYPTMSETMAVCSHLGSCRLLLVEPSRNDLLLRVRLNVSQDDVLYALKDE"}}, "data": [{"variants_of": "B1", "conditions": "with h4_bovin h4, P62803", "values": [{"variant": "Y64A", "effect of a mutation on the interaction": "disrupting interaction strength"}, {"variant": "E94A", "effect of a mutation on the interaction": "disrupting interaction strength"}, {"variant": "W88A", "effect of a mutation on the interaction": "disrupting interaction strength"}]}]}
